Measurements taken from article PMC4833948.

Assays:
hNHE1cdt D3-AXA (human) = hNHE1cdt D3-AXA (human) (UniProt P19634)
[1] = molecular target: human NHE1 C-terminal distal tail, M + I680-Q815 (hNHE1cdt WT) (human) (UniProt P19634)
hNHE1cdt F1-A (human) = hNHE1cdt F1-A (human) (UniProt P19634)
hNHE1cdt F2-AA (human) = hNHE1cdt F2-AA (human) (UniProt P19634)
[2] = molecular target: hNHE1cdt D1D2-(AXA)2 (human) (UniProt P19634)

Substance: active ERK2 (aERK2) (from UniProt P28482 1-360) (enzyme)
- k app of phosphorylation of S693 of hNHE1cdt by aERK2 (time-resolved NMR, 25 °C) (hNHE1cdt D3-AXA (human)): 0.349 h⁻¹
- k app of phosphorylation of S723/S726 of hNHE1cdt by aERK2 (decrease of the S723 peak; time-resolved NMR, 25 °C) (hNHE1cdt D3-AXA (human)): 0.0592 h⁻¹
- k app of phosphorylation of S771 of hNHE1cdt by aERK2 (time-resolved NMR, 25 °C) (hNHE1cdt D3-AXA (human)): 0.007 h⁻¹
- k app of phosphorylation of S785 of hNHE1cdt by aERK2 (time-resolved NMR, 25 °C) (hNHE1cdt D3-AXA (human)): 0.0325 h⁻¹
- k app of phosphorylation of T779 of hNHE1cdt by aERK2 (time-resolved NMR, 25 °C) (hNHE1cdt D3-AXA (human)): 0.141 h⁻¹
- k app of phosphorylation of S693 of hNHE1cdt by aERK2 (time-resolved NMR, 25 °C) [1]: 0.349 h⁻¹
- k app of phosphorylation of S723/S726 of hNHE1cdt by aERK2 (decrease of the S723 peak; time-resolved NMR, 25 °C) [1]: 0.0821 h⁻¹
- k app of phosphorylation of S771 of hNHE1cdt by aERK2 (time-resolved NMR, 25 °C) [1]: 0.0088 h⁻¹
- k app of phosphorylation of S785 of hNHE1cdt by aERK2 (time-resolved NMR, 25 °C) [1]: 0.0305 h⁻¹
- k app of phosphorylation of T779 of hNHE1cdt by aERK2 (time-resolved NMR, 25 °C) [1]: 0.165 h⁻¹
- k app of phosphorylation of S693 of hNHE1cdt by aERK2 (time-resolved NMR, 25 °C) (hNHE1cdt F1-A (human)): 0.3 h⁻¹
- k app of phosphorylation of S723/S726 of hNHE1cdt by aERK2 (decrease of the S723 peak; time-resolved NMR, 25 °C) (hNHE1cdt F1-A (human)): 0.0741 h⁻¹
- k app of phosphorylation of S771 of hNHE1cdt by aERK2 (time-resolved NMR, 25 °C) (hNHE1cdt F1-A (human)): 0.0047 h⁻¹
- k app of phosphorylation of S785 of hNHE1cdt by aERK2 (time-resolved NMR, 25 °C) (hNHE1cdt F1-A (human)): 0.0088 h⁻¹
- k app of phosphorylation of T779 of hNHE1cdt by aERK2 (time-resolved NMR, 25 °C) (hNHE1cdt F1-A (human)): 0.147 h⁻¹
- k app of phosphorylation of S693 of hNHE1cdt by aERK2 (time-resolved NMR, 25 °C) (hNHE1cdt F2-AA (human)): 0.444 h⁻¹
- k app of phosphorylation of S723/S726 of hNHE1cdt by aERK2 (decrease of the S723 peak; time-resolved NMR, 25 °C) (hNHE1cdt F2-AA (human)): 0.127 h⁻¹
- k app of phosphorylation of S771 of hNHE1cdt by aERK2 (time-resolved NMR, 25 °C) (hNHE1cdt F2-AA (human)): 0.0088 h⁻¹
- k app of phosphorylation of S785 of hNHE1cdt by aERK2 (time-resolved NMR, 25 °C) (hNHE1cdt F2-AA (human)): 0.012 h⁻¹
- k app of phosphorylation of T779 of hNHE1cdt by aERK2 (time-resolved NMR, 25 °C) (hNHE1cdt F2-AA (human)): 0.144 h⁻¹
- k app of phosphorylation of S693 of hNHE1cdt by aERK2 (time-resolved NMR, 25 °C) [2]: 0.319 h⁻¹
- k app of phosphorylation of S723/S726 of hNHE1cdt by aERK2 (decrease of the S723 peak; time-resolved NMR, 25 °C) [2]: 0.061 h⁻¹
- k app of phosphorylation of S771 of hNHE1cdt by aERK2 (time-resolved NMR, 25 °C) [2]: 0.0066 h⁻¹
- k app of phosphorylation of S785 of hNHE1cdt by aERK2 (time-resolved NMR, 25 °C) [2]: 0.0302 h⁻¹
- k app of phosphorylation of T779 of hNHE1cdt by aERK2 (time-resolved NMR, 25 °C) [2]: 0.157 h⁻¹
